We go through 1 substance from publication PMC3909184.

This assay addresses CXCR4 (human) (UniProt P61073).
UniProt P61073, sequence (P61073 whole entry): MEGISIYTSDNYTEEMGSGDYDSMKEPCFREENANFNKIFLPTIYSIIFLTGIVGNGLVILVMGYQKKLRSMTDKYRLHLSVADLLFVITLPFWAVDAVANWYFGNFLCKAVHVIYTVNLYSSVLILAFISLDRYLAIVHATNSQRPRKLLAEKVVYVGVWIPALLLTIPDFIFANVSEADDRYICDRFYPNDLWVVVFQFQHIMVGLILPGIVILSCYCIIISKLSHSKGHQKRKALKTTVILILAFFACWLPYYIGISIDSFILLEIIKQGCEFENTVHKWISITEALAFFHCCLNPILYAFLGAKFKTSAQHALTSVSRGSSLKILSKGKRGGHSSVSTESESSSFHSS

With “WT CXCL12 (from UniProt P48061 22-93) (ligand)”, the EC50 of Kir3* K+ current activation (TEVC, -50 mV) in Xenopus oocytes co-expressing CXCR4 and Kir3.1* or Kir3.4*; dose-response is 23 nM.
